B1: Septum site-determining protein MinD (Escherichia coli (strain K12)), P0AEZ3 (parent)
chain: MARIIVVTSGKGGVGKTTSSAAIATGLAQKGKKTVVIDFDIGLRNLDLIMGCERRVVYDFVNVIQGDATLNQALIKDKRTENLYILPASQTRDKDALTREGVAKVLDDLKAMDFEFIVCDSPAGIETGALMALYFADEAIITTNPEVSSVRDSDRILGILASKSRRAENGEEPIKEHLLLTRYNPGRVSRGDMLSMEDVLEILRIKLVGVIPEDQSVLRASNQGEPVILDINADAGKAYADTVERLLGEERPFRFIEEEKKGFLKRLFGG

Variants of: B1
Conditions: with mine_ecoli minE

Effect of a mutation on the interaction, disrupting interaction:
D198R
G224C
M193L
D192Y
N222A

— IntAct's records for PubMed 21816275
